US20230313217A1, “CHLOROPLAST TARGETING PEPTIDES AND CONJUGATES AND COMPOSITIONS THEREOF” (The Regents of the University of California, priority 2021, published 2023)
Ends that are not written are not given here.

System: plant cell membranes
Assay: Plant cell membrane intactness (PI staining, confocal)
Type: in vivo, Arabidopsis thaliana
Details: after 5 days of exposure; 20 mg/L / 2 mg/L
Excerpt: Interactions of Targeted Carbon Nanostructures with Plant Cell and Chloroplast Membranes. Damage to plant lipid membranes may cause ion and molecule permeability changes across the membrane, interruption of metabolic processes, intracellular signaling, and trafficking of biomolecules.^65,66 The application of targeted nanostructures with high charge allows penetration of plant cell barriers and localization inside organelles that could cause disruption in lipid membrane integrity. Plant cell membrane intactness in leaves treated with TP-β-CDs or TP-pATV1-SWCNTs (Table 1) was assessed by staining dead cells with propidium iodide (PI) dye followed by imaging under confocal microscopy (FIG. 7A). PI is a nonpermeable dye that only crosses the cell membranes when they are damaged. The overall percentage of intact cells without PI stained nuclei was calculated relative to the total number of cells (FIG. 7B). […] Both TP-β-CDs and TP-pATV1-SWCNTs maintained more than 93% of plant cells with intact membranes after 1 and 5 days of exposure, similar to controls without nanoparticles (FIG. 7B). […]
The percentage of intact cells was determined in Arabidopsis thaliana leaf tissues treated with TP-β-CD (20, 100, 500 mg/L) or TP-pATV1-SWCNT (2, 5, 10 mg/L) from one to five days. […] The total number of cells was determined using chloroplast autofluorescence to identify the leaf mesophyll cell boundaries. […]

## TP-β-CD: carbon dots with β-cyclodextrin molecular baskets covalently bonded to chloroplast targeting peptide MASSMLSSATMVGGC (SEQ ID NO:5) (also: covalently bonded to carbon dots with β-cyclodextrin, site not given here)
  cell and chloroplast membrane damage: no permanent cell and chloroplast membrane damage
